{
  "source": "the RNAGym collection of RNA variant scans (doi:10.1073/pnas.2313332121)",
  "parents": {"B1": {"name": "TPR 5TU (parent)", "chain": "GGAUCUUCUCGAUCUAACAAAAAAGACAAAUCUGCCACAAAGCUUGAGAGCAUCUUCGGAUGCAGAGGCGGCAGCCUUCGGUGGCGCGAUAGCGCCAACGUUCUCAACUAUGACACGCAAAACGCGUGCUCCGUUGAAUGGAGUUUAUCAUG"}},
  "note": "This sample holds only a part of the variants without activity.",
  "data": [
    {"variants_of": "B1", "test": "polymerase ribozyme fitness, log enrichment relative to wild type (log ratio); higher = more active; in vitro selection for triplet polymerase activity", "procedure,_shortened": "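Genotype fitness is the logarithm of its enrichment divided by wild-type enrichment, using inverse-variance-weighted averages of replicates. That logarithm is base 2. Enrichment was measured by Illumina sequencing of input and output libraries from one triplicate in vitro selection round, with frozen incubation at −7 °C, on PCR-built, transcribed mutant libraries of each subunit of a heterodimeric triplet polymerase ribozyme, retaining genotypes with ≥10 input reads and ≥1 read per output.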", "values": [
      {"variant": "U7A C10A C14U C32G C36A U53G U55G U61A G67C U82G C87G C96U C103G", "polymerase ribozyme fitness (log ratio)": "≤ -4.2"},
      {"variant": "C35A C79G U151A", "polymerase ribozyme fitness (log ratio)": "≤ -4.2"},
      {"variant": "A41U U53A G74C U82C", "polymerase ribozyme fitness (log ratio)": "≤ -4.2"},
      {"variant": "A26C G83A G126A A137G", "polymerase ribozyme fitness (log ratio)": "≤ -4.2"},
      {"variant": "A41C A47C U56A C85U", "polymerase ribozyme fitness (log ratio)": -1.41},
      {"variant": "A24C C95A C96G U144C", "polymerase ribozyme fitness (log ratio)": "≤ -4.2"},
      {"variant": "U31A G68C C76A C85A", "polymerase ribozyme fitness (log ratio)": "≤ -4.2"},
      {"variant": "A107U A115G", "polymerase ribozyme fitness (log ratio)": -4.16},
      {"variant": "U9C A37G G42C A73U G92C C103U", "polymerase ribozyme fitness (log ratio)": "≤ -4.2"},
      {"variant": "C85A A150C", "polymerase ribozyme fitness (log ratio)": "≤ -4.2"},
      {"variant": "A21G G81U C95A C96A A98U U145A", "polymerase ribozyme fitness (log ratio)": -1.34},
      {"variant": "C54U G84A A110U", "polymerase ribozyme fitness (log ratio)": "≤ -4.2"},
      {"variant": "G11C A22U A30G A37C A91G C93A A98C C118G", "polymerase ribozyme fitness (log ratio)": "≤ -4.2"},
      {"variant": "A16G A19U G48A C54A U101G C108A A137C A150C", "polymerase ribozyme fitness (log ratio)": "≤ -4.2"},
      {"variant": "A24C C27G U33G C38U A47U U82A G128U", "polymerase ribozyme fitness (log ratio)": "≤ -4.2"},
      {"variant": "C38U C79U A121U C125A G143U", "polymerase ribozyme fitness (log ratio)": -3.92},
      {"variant": "C35A A47C G86U", "polymerase ribozyme fitness (log ratio)": "≤ -4.2"},
      {"variant": "C57A U104G A120U", "polymerase ribozyme fitness (log ratio)": -0.824},
      {"variant": "A29G A52G", "polymerase ribozyme fitness (log ratio)": -4.08},
      {"variant": "A19G G59U C76A C96U", "polymerase ribozyme fitness (log ratio)": -1.25},
      {"variant": "C38U G86A A137G A147U", "polymerase ribozyme fitness (log ratio)": -2.49},
      {"variant": "A12G A24U G34A G92U G126C", "polymerase ribozyme fitness (log ratio)": -1.83},
      {"variant": "G59U A73G", "polymerase ribozyme fitness (log ratio)": -0.629},
      {"variant": "C32G A37G C38U U56A A119C", "polymerase ribozyme fitness (log ratio)": "≤ -4.2"},
      {"variant": "A3U C35G C93U G100A C105G G133C", "polymerase ribozyme fitness (log ratio)": "≤ -4.2"},
      {"variant": "G42C U44G G88A A97C", "polymerase ribozyme fitness (log ratio)": "≤ -4.2"},
      {"variant": "C54U C87G", "polymerase ribozyme fitness (log ratio)": "≤ -4.2"},
      {"variant": "C54U G67U G86U C95A", "polymerase ribozyme fitness (log ratio)": "≤ -4.2"},
      {"variant": "G34U C54U U78G G83A C108G", "polymerase ribozyme fitness (log ratio)": -4.13},
      {"variant": "C14G A39U G58A U61G C85U C95U A107C G141C U146C", "polymerase ribozyme fitness (log ratio)": "≤ -4.2"},
      {"variant": "A23C U55A C87G C114G G133U G136U", "polymerase ribozyme fitness (log ratio)": "≤ -4.2"},
      {"variant": "A21C C35U C75U G92C C96A C108U C131U A142C", "polymerase ribozyme fitness (log ratio)": "≤ -4.2"},
      {"variant": "A23U C35G A73U G81A U109G", "polymerase ribozyme fitness (log ratio)": "≤ -4.2"},
      {"variant": "A40C U134A", "polymerase ribozyme fitness (log ratio)": -1.77},
      {"variant": "C51U U56A G71C G84A G140A A142U", "polymerase ribozyme fitness (log ratio)": "≤ -4.2"},
      {"variant": "A52C U77G C79U C87A C95U", "polymerase ribozyme fitness (log ratio)": "≤ -4.2"},
      {"variant": "C27U A29U U144C", "polymerase ribozyme fitness (log ratio)": "≤ -4.2"},
      {"variant": "A22U C149U", "polymerase ribozyme fitness (log ratio)": 0.0648},
      {"variant": "A29U C96U A106C U127G", "polymerase ribozyme fitness (log ratio)": "≤ -4.2"},
      {"variant": "U44A C57A U82C C95A", "polymerase ribozyme fitness (log ratio)": "≤ -4.2"},
      {"variant": "A20C C85U G86U C93A A119U A121G", "polymerase ribozyme fitness (log ratio)": -1.77},
      {"variant": "U4A C14G A40G", "polymerase ribozyme fitness (log ratio)": -3.69},
      {"variant": "U6G A12U A20U C51A C96A G100U C118A U148C", "polymerase ribozyme fitness (log ratio)": "≤ -4.2"},
      {"variant": "U33G A40C C116A", "polymerase ribozyme fitness (log ratio)": -3.88},
      {"variant": "A16C A21C C57A G88U C103G U130G", "polymerase ribozyme fitness (log ratio)": "≤ -4.2"},
      {"variant": "A21C A26U C38U C87G C105U", "polymerase ribozyme fitness (log ratio)": "≤ -4.2"},
      {"variant": "A47U G48U G80C C93U", "polymerase ribozyme fitness (log ratio)": "≤ -4.2"},
      {"variant": "A21C A24U A40G U144A", "polymerase ribozyme fitness (log ratio)": -3.76},
      {"variant": "C54A C57U G59U", "polymerase ribozyme fitness (log ratio)": -0.27},
      {"variant": "C14G A30U A41C C43U G50C U55G C75G C118U A119C", "polymerase ribozyme fitness (log ratio)": "≤ -4.2"},
      {"variant": "G94C A97U A150G", "polymerase ribozyme fitness (log ratio)": -1.52},
      {"variant": "G48A G133U", "polymerase ribozyme fitness (log ratio)": -3.81},
      {"variant": "A21C C93A U104A G141C U144G G152A", "polymerase ribozyme fitness (log ratio)": "≤ -4.2"},
      {"variant": "G59C C93A C95A", "polymerase ribozyme fitness (log ratio)": -4.05},
      {"variant": "U55A G84U", "polymerase ribozyme fitness (log ratio)": -2.28},
      {"variant": "A20C U61A C63U C85U", "polymerase ribozyme fitness (log ratio)": -1.55},
      {"variant": "A19C G34A C57U G86C C96U A98U", "polymerase ribozyme fitness (log ratio)": -3.16},
      {"variant": "U53G G58C U82G A138C U151A", "polymerase ribozyme fitness (log ratio)": "≤ -4.2"},
      {"variant": "G46A U53G", "polymerase ribozyme fitness (log ratio)": -3.49},
      {"variant": "A41C U45A G68A C85A C118G C129U U144C U146A", "polymerase ribozyme fitness (log ratio)": "≤ -4.2"},
      {"variant": "C27G G58A C93A C95G", "polymerase ribozyme fitness (log ratio)": "≤ -4.2"},
      {"variant": "A20U A22G C51A G92A C93A C132U", "polymerase ribozyme fitness (log ratio)": "≤ -4.2"},
      {"variant": "U55A A150C", "polymerase ribozyme fitness (log ratio)": -3.6},
      {"variant": "C38A C93G C123G", "polymerase ribozyme fitness (log ratio)": -3.67},
      {"variant": "A19G A40C C93U", "polymerase ribozyme fitness (log ratio)": -0.92},
      {"variant": "A49U U61A A138C G140C", "polymerase ribozyme fitness (log ratio)": "≤ -4.2"},
      {"variant": "C32G", "polymerase ribozyme fitness (log ratio)": -3.19},
      {"variant": "C5U A41U G68A G94A C99G U102G A115G C125G", "polymerase ribozyme fitness (log ratio)": "≤ -4.2"},
      {"variant": "C51G C79A", "polymerase ribozyme fitness (log ratio)": "≤ -4.2"},
      {"variant": "C8U C43U G48C U55A G92C", "polymerase ribozyme fitness (log ratio)": "≤ -4.2"},
      {"variant": "A47G C114U", "polymerase ribozyme fitness (log ratio)": -2.4},
      {"variant": "U9A A16U A19U C27G U77C G84A G100C G133U G141A U145A", "polymerase ribozyme fitness (log ratio)": "≤ -4.2"},
      {"variant": "A73U G84A G92A A122C U134A", "polymerase ribozyme fitness (log ratio)": "≤ -4.2"},
      {"variant": "G84A G88U", "polymerase ribozyme fitness (log ratio)": -3.57},
      {"variant": "A16U U33C C38U G140U", "polymerase ribozyme fitness (log ratio)": "≤ -4.2"},
      {"variant": "C87U U145A", "polymerase ribozyme fitness (log ratio)": 0.0527},
      {"variant": "C27A C75U C93G A115U", "polymerase ribozyme fitness (log ratio)": "≤ -4.2"},
      {"variant": "A29U G94U C149G", "polymerase ribozyme fitness (log ratio)": "≤ -4.2"},
      {"variant": "C14A A16U A19U A52G G68A C85G U151G", "polymerase ribozyme fitness (log ratio)": "≤ -4.2"},
      {"variant": "A49C C87A C132A", "polymerase ribozyme fitness (log ratio)": "≤ -4.2"},
      {"variant": "C43U A106G", "polymerase ribozyme fitness (log ratio)": "≤ -4.2"},
      {"variant": "A49U U101C C116U", "polymerase ribozyme fitness (log ratio)": -1.49},
      {"variant": "C85U A107U", "polymerase ribozyme fitness (log ratio)": -3.65},
      {"variant": "A19G C32A G46C C54U G59C A106U G128C", "polymerase ribozyme fitness (log ratio)": "≤ -4.2"}
    ]}
  ]
}
